In US20190153108A1 (AbbVie / Abbott, published 2019):

Biological target: human Epidermal Growth Factor Receptor (huEGFR) over-expressed in mcl-1-/- mouse embryonic fibroblasts (human, UniProt P00533 25-1210)
Experiment: cell-based or functional assay

Row | Binder | huEGFR^+ mcl-1^-/- MEF EC50 [µM]
1 | AbA-CZ (antibody, V domains shown, synthon CZ on reduced interchain Cys) VH: EVQLQESGPGLVKPSQTLSLTCTVSGYSISRDFAWNWIRQPPGKGLEWMGYISYNGNTRYQPSLKSRITISRDTSKNQFFLKLNSVTAADTATYYCVTASRGFPYWGQGTLVTVSS VL: DIQMTQSPSSMSVSVGDRVTITCHSSQDINSNIGWLQQKPGKSFKGLIYHGTNLDDGVPSRFSGSGSGTDYTLTISSLQPEDFATYYCVQYAQFPWTFGGGTKLEIKR | 0.0003
2 | AbB-ZZ (antibody, V domains shown, synthon ZZ on reduced interchain Cys) VH: EVQLQESGPGLVKPSQTLSLTCTVSGYSISNDFAWNWIRQPPGKGLEWMGYISYKGNTRYQPSLKSRITISRDTSKNQFFLKLNSVTAADTATYYCVTASRGFPWWGQGTLVTVSS VL: DIQMTQSPSSMSVSVGDRVTITCHSSQDINSNIGWLQQKPGKSFKGLIYHGTNLDDGVPSRFSGSGSGTDYTLTISSLQPEDFATYYCVQYAQFPWTFGGGTKLEIKR | 0.0074
3 | AbB-SR (antibody, V domains shown, synthon SR on reduced interchain Cys) VH: EVQLQESGPGLVKPSQTLSLTCTVSGYSISNDFAWNWIRQPPGKGLEWMGYISYKGNTRYQPSLKSRITISRDTSKNQFFLKLNSVTAADTATYYCVTASRGFPWWGQGTLVTVSS VL: DIQMTQSPSSMSVSVGDRVTITCHSSQDINSNIGWLQQKPGKSFKGLIYHGTNLDDGVPSRFSGSGSGTDYTLTISSLQPEDFATYYCVQYAQFPWTFGGGTKLEIKR | 0.007
4 | AbA-YY (antibody, V domains shown, synthon YY on reduced interchain Cys) VH: EVQLQESGPGLVKPSQTLSLTCTVSGYSISRDFAWNWIRQPPGKGLEWMGYISYNGNTRYQPSLKSRITISRDTSKNQFFLKLNSVTAADTATYYCVTASRGFPYWGQGTLVTVSS VL: DIQMTQSPSSMSVSVGDRVTITCHSSQDINSNIGWLQQKPGKSFKGLIYHGTNLDDGVPSRFSGSGSGTDYTLTISSLQPEDFATYYCVQYAQFPWTFGGGTKLEIKR | 0.46
5 | AbB-SE (antibody, V domains shown, synthon SE on reduced interchain Cys) VH: EVQLQESGPGLVKPSQTLSLTCTVSGYSISNDFAWNWIRQPPGKGLEWMGYISYKGNTRYQPSLKSRITISRDTSKNQFFLKLNSVTAADTATYYCVTASRGFPWWGQGTLVTVSS VL: DIQMTQSPSSMSVSVGDRVTITCHSSQDINSNIGWLQQKPGKSFKGLIYHGTNLDDGVPSRFSGSGSGTDYTLTISSLQPEDFATYYCVQYAQFPWTFGGGTKLEIKR | 0.039
6 | AbB-XW (antibody, V domains shown, synthon XW on reduced interchain Cys) VH: EVQLQESGPGLVKPSQTLSLTCTVSGYSISNDFAWNWIRQPPGKGLEWMGYISYKGNTRYQPSLKSRITISRDTSKNQFFLKLNSVTAADTATYYCVTASRGFPWWGQGTLVTVSS VL: DIQMTQSPSSMSVSVGDRVTITCHSSQDINSNIGWLQQKPGKSFKGLIYHGTNLDDGVPSRFSGSGSGTDYTLTISSLQPEDFATYYCVQYAQFPWTFGGGTKLEIKR | 0.00065
7 | AbA-KZ (antibody, V domains shown, synthon KZ on reduced interchain Cys) VH: EVQLQESGPGLVKPSQTLSLTCTVSGYSISRDFAWNWIRQPPGKGLEWMGYISYNGNTRYQPSLKSRITISRDTSKNQFFLKLNSVTAADTATYYCVTASRGFPYWGQGTLVTVSS VL: DIQMTQSPSSMSVSVGDRVTITCHSSQDINSNIGWLQQKPGKSFKGLIYHGTNLDDGVPSRFSGSGSGTDYTLTISSLQPEDFATYYCVQYAQFPWTFGGGTKLEIKR | 0.152
8 | AbB-KZ (antibody, V domains shown, synthon KZ on reduced interchain Cys) VH: EVQLQESGPGLVKPSQTLSLTCTVSGYSISNDFAWNWIRQPPGKGLEWMGYISYKGNTRYQPSLKSRITISRDTSKNQFFLKLNSVTAADTATYYCVTASRGFPWWGQGTLVTVSS VL: DIQMTQSPSSMSVSVGDRVTITCHSSQDINSNIGWLQQKPGKSFKGLIYHGTNLDDGVPSRFSGSGSGTDYTLTISSLQPEDFATYYCVQYAQFPWTFGGGTKLEIKR | 0.055
9 | AbA-YG (antibody, V domains shown, synthon YG on reduced interchain Cys) VH: EVQLQESGPGLVKPSQTLSLTCTVSGYSISRDFAWNWIRQPPGKGLEWMGYISYNGNTRYQPSLKSRITISRDTSKNQFFLKLNSVTAADTATYYCVTASRGFPYWGQGTLVTVSS VL: DIQMTQSPSSMSVSVGDRVTITCHSSQDINSNIGWLQQKPGKSFKGLIYHGTNLDDGVPSRFSGSGSGTDYTLTISSLQPEDFATYYCVQYAQFPWTFGGGTKLEIKR | 0.0064
10 | AbA-SR (antibody, V domains shown, synthon SR on reduced interchain Cys) VH: EVQLQESGPGLVKPSQTLSLTCTVSGYSISRDFAWNWIRQPPGKGLEWMGYISYNGNTRYQPSLKSRITISRDTSKNQFFLKLNSVTAADTATYYCVTASRGFPYWGQGTLVTVSS VL: DIQMTQSPSSMSVSVGDRVTITCHSSQDINSNIGWLQQKPGKSFKGLIYHGTNLDDGVPSRFSGSGSGTDYTLTISSLQPEDFATYYCVQYAQFPWTFGGGTKLEIKR | 0.0059
11 | AbA-XW (antibody, V domains shown, synthon XW on reduced interchain Cys) VH: EVQLQESGPGLVKPSQTLSLTCTVSGYSISRDFAWNWIRQPPGKGLEWMGYISYNGNTRYQPSLKSRITISRDTSKNQFFLKLNSVTAADTATYYCVTASRGFPYWGQGTLVTVSS VL: DIQMTQSPSSMSVSVGDRVTITCHSSQDINSNIGWLQQKPGKSFKGLIYHGTNLDDGVPSRFSGSGSGTDYTLTISSLQPEDFATYYCVQYAQFPWTFGGGTKLEIKR | 0.032
12 | AbB-ZT (antibody, V domains shown, synthon ZT on reduced interchain Cys) VH: EVQLQESGPGLVKPSQTLSLTCTVSGYSISNDFAWNWIRQPPGKGLEWMGYISYKGNTRYQPSLKSRITISRDTSKNQFFLKLNSVTAADTATYYCVTASRGFPWWGQGTLVTVSS VL: DIQMTQSPSSMSVSVGDRVTITCHSSQDINSNIGWLQQKPGKSFKGLIYHGTNLDDGVPSRFSGSGSGTDYTLTISSLQPEDFATYYCVQYAQFPWTFGGGTKLEIKR | 0.0089
13 | AbA-SE (antibody, V domains shown, synthon SE on reduced interchain Cys) VH: EVQLQESGPGLVKPSQTLSLTCTVSGYSISRDFAWNWIRQPPGKGLEWMGYISYNGNTRYQPSLKSRITISRDTSKNQFFLKLNSVTAADTATYYCVTASRGFPYWGQGTLVTVSS VL: DIQMTQSPSSMSVSVGDRVTITCHSSQDINSNIGWLQQKPGKSFKGLIYHGTNLDDGVPSRFSGSGSGTDYTLTISSLQPEDFATYYCVQYAQFPWTFGGGTKLEIKR | 0.105
14 | AbB-YG (antibody, V domains shown, synthon YG on reduced interchain Cys) VH: EVQLQESGPGLVKPSQTLSLTCTVSGYSISNDFAWNWIRQPPGKGLEWMGYISYKGNTRYQPSLKSRITISRDTSKNQFFLKLNSVTAADTATYYCVTASRGFPWWGQGTLVTVSS VL: DIQMTQSPSSMSVSVGDRVTITCHSSQDINSNIGWLQQKPGKSFKGLIYHGTNLDDGVPSRFSGSGSGTDYTLTISSLQPEDFATYYCVQYAQFPWTFGGGTKLEIKR | 0.0033
15 | AbA-AAA (antibody, V domains shown, synthon AAA on reduced interchain Cys) VH: EVQLQESGPGLVKPSQTLSLTCTVSGYSISRDFAWNWIRQPPGKGLEWMGYISYNGNTRYQPSLKSRITISRDTSKNQFFLKLNSVTAADTATYYCVTASRGFPYWGQGTLVTVSS VL: DIQMTQSPSSMSVSVGDRVTITCHSSQDINSNIGWLQQKPGKSFKGLIYHGTNLDDGVPSRFSGSGSGTDYTLTISSLQPEDFATYYCVQYAQFPWTFGGGTKLEIKR | 0.22

The remaining lines, values ahead:

Row | huEGFR^+ mcl-1^-/- MEF EC50 [µM] | Binder
16 | 0.068 | AbG-ZZ (antibody, V domains shown, synthon ZZ on reduced interchain Cys) VH: EVQLQESGPGLVKPSQTLSLTCTVSGYSISNDFAWNWIRQLPGKGLEWMGYISYKGNTRYQPSLKSRITISRDTSKNQFFLKLNSVTAADTATYYCVTASRGLPYWGQGTLVTVSS VL: DIQMTQSPSSMSVSVGDRVTITCHSSQDITYNIGWLQQKPGKSFKGLIYHGANLDDGVPSRFSGSGSGTDYTLTISSLQPEDFATYYCVQYDEFPWTFGGGTKLEIKR
17 | 0.096 | AbG-KZ (antibody, V domains shown, synthon KZ on reduced interchain Cys) VH: EVQLQESGPGLVKPSQTLSLTCTVSGYSISNDFAWNWIRQLPGKGLEWMGYISYKGNTRYQPSLKSRITISRDTSKNQFFLKLNSVTAADTATYYCVTASRGLPYWGQGTLVTVSS VL: DIQMTQSPSSMSVSVGDRVTITCHSSQDITYNIGWLQQKPGKSFKGLIYHGANLDDGVPSRFSGSGSGTDYTLTISSLQPEDFATYYCVQYDEFPWTFGGGTKLEIKR
18 | 0.019 | AbG-XW (antibody, V domains shown, synthon XW on reduced interchain Cys) VH: EVQLQESGPGLVKPSQTLSLTCTVSGYSISNDFAWNWIRQLPGKGLEWMGYISYKGNTRYQPSLKSRITISRDTSKNQFFLKLNSVTAADTATYYCVTASRGLPYWGQGTLVTVSS VL: DIQMTQSPSSMSVSVGDRVTITCHSSQDITYNIGWLQQKPGKSFKGLIYHGANLDDGVPSRFSGSGSGTDYTLTISSLQPEDFATYYCVQYDEFPWTFGGGTKLEIKR
19 | 0.001 | AbG-YG (antibody, V domains shown, synthon YG on reduced interchain Cys) VH: EVQLQESGPGLVKPSQTLSLTCTVSGYSISNDFAWNWIRQLPGKGLEWMGYISYKGNTRYQPSLKSRITISRDTSKNQFFLKLNSVTAADTATYYCVTASRGLPYWGQGTLVTVSS VL: DIQMTQSPSSMSVSVGDRVTITCHSSQDITYNIGWLQQKPGKSFKGLIYHGANLDDGVPSRFSGSGSGTDYTLTISSLQPEDFATYYCVQYDEFPWTFGGGTKLEIKR
20 | 0.007 | AbG-SR (antibody, V domains shown, synthon SR on reduced interchain Cys) VH: EVQLQESGPGLVKPSQTLSLTCTVSGYSISNDFAWNWIRQLPGKGLEWMGYISYKGNTRYQPSLKSRITISRDTSKNQFFLKLNSVTAADTATYYCVTASRGLPYWGQGTLVTVSS VL: DIQMTQSPSSMSVSVGDRVTITCHSSQDITYNIGWLQQKPGKSFKGLIYHGANLDDGVPSRFSGSGSGTDYTLTISSLQPEDFATYYCVQYDEFPWTFGGGTKLEIKR
21 | 0.024 | AbG-SE (antibody, V domains shown, synthon SE on reduced interchain Cys) VH: EVQLQESGPGLVKPSQTLSLTCTVSGYSISNDFAWNWIRQLPGKGLEWMGYISYKGNTRYQPSLKSRITISRDTSKNQFFLKLNSVTAADTATYYCVTASRGLPYWGQGTLVTVSS VL: DIQMTQSPSSMSVSVGDRVTITCHSSQDITYNIGWLQQKPGKSFKGLIYHGANLDDGVPSRFSGSGSGTDYTLTISSLQPEDFATYYCVQYDEFPWTFGGGTKLEIKR
22 | 0.033 | AbG-ZT (antibody, V domains shown, synthon ZT on reduced interchain Cys) VH: EVQLQESGPGLVKPSQTLSLTCTVSGYSISNDFAWNWIRQLPGKGLEWMGYISYKGNTRYQPSLKSRITISRDTSKNQFFLKLNSVTAADTATYYCVTASRGLPYWGQGTLVTVSS VL: DIQMTQSPSSMSVSVGDRVTITCHSSQDITYNIGWLQQKPGKSFKGLIYHGANLDDGVPSRFSGSGSGTDYTLTISSLQPEDFATYYCVQYDEFPWTFGGGTKLEIKR
